B1: tail tube protein pb6 of bacteriophage T5 (natural protein, UniProt Q6QGE2 1-464, looked up)
chain: MSLQLLRNTRIFVSTVKTGHNKTNTQEILVQDDISWGQDSNSTDITVNEAGPRPTRGSKRFNDSLNAAEWSFSTYILPYKDKNTSKQIVPDYMLWHALSSGRAINLEGTTGAHNNATNFMVNFKDNSYHELAMLHIYILTDKTWSYIDSCQINQAEVNVDIEDIGRVTWSGNGNQLIPLDEQPFDPDQIGIDDETYMTIQGSYIKNKLTILKIKDMDTNKSYDIPITGGTFTINNNITYLTPNVMSRVTIPIGSFTGAFELTGSLTAYLNDKSLGSMELYKDLIKTLKVVNRFEIALVLGGEYDDERPAAILVAKQAHVNIPTIETDDVLGTSVEFKAIPSDLDAGDEGYLGFSSKYTRTTINNLIVNGDGATDAVTAITVKSAGNVTTLNRSATLQMSVEVTPSSARNKEVTWAITAGDAATINATGLLRADASKTGAVTVEATAKDGSGVKGTKVITVTAGG
notes: tail tube protein pb6 (TTP) of bacteriophage T5; structures compared over the 464 residues; Native phage-encoded protein as it stands in the purified tail; trimeric ring (last ring of the tube, under the p142 ring); also called TTPpb6; source: E. coli strain F infected with the mutant phage T5D20am30d; part of purified T5 tails (PEG precipitation, glycerol step gradient, ion exchange)
B2: distal tail protein pb9 of bacteriophage T5 (natural protein, UniProt Q6QGE8 1-204, looked up)
chain: MRLPDPYTNPEYPGLGFESVNLVDNDPMIRDELPNGKVKEVKISAQYWGINISYPELFPDEYAFLDSRLLEYKRTGDYLDVLLPQYEAFRVRGDTKSVTIPAGQKGSQIILNTNGTLTGQPKAGDLFKLSTHPKVYKITNFSSSGNVWNISLYPDLFITTTGSEKPVFNGILFRTKLMNGDSFGSTLNNNGTYSGISLSLRESL
notes: distal tail protein pb9 (DTP) of bacteriophage T5; Native protein of the purified tail tip; hexamer; also called DTPpb9; source: E. coli strain F infected with the mutant phage T5D20am30d; part of purified T5 tails
B3: tail terminator protein p142 of bacteriophage T5 (natural protein, UniProt Q6QGE1 1-161, looked up)
chain: MDHRTSIAQAMVDRISKQMDGSQPDEYFNNLYGNVSRQTYKFEEIREFPYVAVHIGTETGQYLPSGQQWMFLELPILVYDKEKTDIQEQLEKLVADIKTVIDTGGNLEYTVSKPNGSTFPCEATDMIITSVSTDEGLLAPYGLAEINVTVRYQPPRRSLRR
notes: tail terminator protein p142 (TrP) of bacteriophage T5; a 161-residues protein; model compared over 156 residues; Native phage-encoded protein as it stands in the purified tail; hexameric ring that caps the tail tube; also called TrP_(p142); Trp_(p142); source: E. coli strain F infected with the mutant phage T5D20am30d; part of purified T5 tails (PEG precipitation, glycerol step gradient, ion …)
B4: tail completion protein p143 of bacteriophage T5 (natural protein, UniProt Q6QGE0 1-255, looked up)
chain: MSLSDLARQIIKEQLDTASRSENNKNTVVYSVETGLKDPTRDGTVAQVSFKFSKPVSQDLLNIRTASILKAVSSSLDLSGDLGALENLIQATAGKKSSVGKKRSTGRVQVNFGDPSDVEDGYSGAVTGASGRFVSNSNMKIILEIVAKEYLIKDMKKAGAPLKFRTGRFANSLKIKDVMLRDSETSKGSPELNVTYNYMTRPYSVFNPAVSTYRRLSLRPYPGARNPQKLIGEAIAKAARDLIHSRYKIKVNQGT
notes: tail completion protein p143 (TCP) of bacteriophage T5; 27.8 kDa, 255 residues; Native protein of the purified tail; the density was assigned to it by the fit of an AlphaFold2 model and because it was the only tail protein not yet localised; also called TCP_(p143); Neck1; source: E. coli strain F infected with the mutant phage T5D20am30d; part of purified T5 tails
B5: Baseplate Hub Protein pb3 of bacteriophage T5 (natural protein, UniProt Q6QGE9 1-949, looked up)
chain: MKKILDSAKNYLNTHDKLKTACLIALELPSSSGSAATYIYLTDYFRDVTYNGILYRSGKVKSISSHKQNRQLSIGSLSFTITGTAEDEVLKLVQNGVSFLDRGITIHQAIINEEGNILPVDPDTDGPLLFFRGRITGGGIKDNVNTSGIGTSVITWNCSNQFYDFDRVNGRYTDDASHRGLEVVNGTLQPSNGAKRPEYQEDYGFFHSNKSTTILAKYQVKEERYKLQSKKKLFGLSRSYSLKKYYETVTKEVDLDFNLAAKFIPVVYGVQKIPGIPIFADTELNNPNIVYVVYAFAEGEIDGFLDFYIGDSPMICFDETDSDTRTCFGRKKIVGDTMHRLAAGTSTSQPSVHGQEYKYNDGNGDIRIWTFHGKPDQTAAQVLVDIAKKKGFYLQNQNGNGPEYWDSRYKLLDTAYAIVRFTINENRTEIPEISAEVQGKKVKVYNSDGTIKADKTSLNGIWQLMDYLTSDRYGADITLDQFPLQKVISEAKILDIIDESYQTSWQPYWRYVGWNDPLSENRQIVQLNTILDTSESVFKNVQGILESFGGAINNLSGEYRITVEKYSTNPLRINFLDTYGDLDLSDTTGRNKFNSVQASLVDPALSWKTNSITFYNSKFKEQDKGLDKKLQLSFANITNYYTARSYADRELKKSRYSRTLSFSVPYKFIGIEPNDPIAFTYERYGWKDKFFLVDEVENTRDGKINLVLQEYGEDVFINSEQVDNSGNDIPDISNNVLPPRDFKYTPTPGGVVGAIGKNGELSWLPSLTNNVVYYSIAHSGHVNPYIVQQLENNPNERMIQEIIGEPAGLAIFELRAVDINGRRSSPVTLSVDLNSAKNLSVVSNFRVVNTASGDVTEFVGPDVKLAWDKIPEEEIIPEIYYTLEIYDSQDRMLRSVRIEDVYTYDYLLTYNKADFALLNSGALGINRKLRFRIRAEGENGEQSVGWATI
notes: Baseplate Hub Protein pb3 (BHP) of bacteriophage T5; Native protein of the purified tail tip; trimer; also called BHPpb3; source: E. coli strain F infected with the mutant phage T5D20am30d; part of purified T5 tails

How the values were obtained:
[1] = target: the molecule itself; assay: cryo-EM structure; proximal extremity of native T5 tails (assembled in infected E. coli, purified as whole tails); single particle analysis, C3 symmetry imposed, 3.88 Å
[2] = target: the molecule itself; assay: cryo-EM structure; tail tip of native purified T5 tails; particles recentred on the lower part of BHPpb3, symmetry relaxation, no symmetry imposed; 6–10 Å in the area of the additional density; AlphaFold2 model of TCP_(p143) flexibly fitted
[3] = target: B5; assay: as above; details: partners not purified

Binder	stoichiometry N [1]	stoichiometry N [2]	also measured
B1	3	–	–
B2	–	6	–
B3	6	–	–
B4	–	–	stoichiometry N [3]: 1 copy per phage
B5	–	3	–

From PMC11784142, “About bacteriophage tail terminator and tail completion proteins: structure of the proximal extremity of siphophage T5 tail” (Journal of Virology, 2024)
